Data taken from publication PMC11019746 (ACS Pharmacology & Translational Science, 2024).

How the values were obtained:
[1] = target: T1, hY1R (Homo sapiens, UniProt P25929); assay: Y1R radioligand competition binding, whole SK-N-MC cells, [3H]UR-MK299; details: SK-N-MC neuroblastoma cells, [3H]UR-MK299 c = […]; read-out: pKi ± SEM hY1R (converted)
T1 construct: host or cells: SK-N-MC neuroblastoma cells
T1 sequence (P25929 1-384): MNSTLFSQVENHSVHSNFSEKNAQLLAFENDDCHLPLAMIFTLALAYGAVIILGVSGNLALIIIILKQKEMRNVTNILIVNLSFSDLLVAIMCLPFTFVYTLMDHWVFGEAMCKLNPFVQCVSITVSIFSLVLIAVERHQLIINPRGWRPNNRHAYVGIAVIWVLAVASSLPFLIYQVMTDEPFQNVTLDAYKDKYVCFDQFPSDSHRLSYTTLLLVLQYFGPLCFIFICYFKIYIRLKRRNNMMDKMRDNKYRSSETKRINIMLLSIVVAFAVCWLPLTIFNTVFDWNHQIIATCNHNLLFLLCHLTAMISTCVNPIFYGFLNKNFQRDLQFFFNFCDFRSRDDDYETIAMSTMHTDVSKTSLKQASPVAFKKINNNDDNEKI
Procedure: (§1) All radioligand binding assays were performed at intact Y receptor expressing cells at 23 ± 2 °C.
Competition binding assays at Y1R-expressing SK-N-MC neuroblastoma cells were performed as previously described using [^3H]UR-MK299 as radioligand (concentration: 0.15 nM).[33] […] (logarithmic form in the case of pKi values).

[2] = target: T2, hY2R (Homo sapiens, UniProt P49146); assay: Y2R radioligand competition binding, whole CHO-hY2R cells, [3H]propionyl-pNPY; details: read-out: pKi ± SEM hY2R (converted)
T2 construct: host or cells: CHO
T2 sequence (P49146 1-381): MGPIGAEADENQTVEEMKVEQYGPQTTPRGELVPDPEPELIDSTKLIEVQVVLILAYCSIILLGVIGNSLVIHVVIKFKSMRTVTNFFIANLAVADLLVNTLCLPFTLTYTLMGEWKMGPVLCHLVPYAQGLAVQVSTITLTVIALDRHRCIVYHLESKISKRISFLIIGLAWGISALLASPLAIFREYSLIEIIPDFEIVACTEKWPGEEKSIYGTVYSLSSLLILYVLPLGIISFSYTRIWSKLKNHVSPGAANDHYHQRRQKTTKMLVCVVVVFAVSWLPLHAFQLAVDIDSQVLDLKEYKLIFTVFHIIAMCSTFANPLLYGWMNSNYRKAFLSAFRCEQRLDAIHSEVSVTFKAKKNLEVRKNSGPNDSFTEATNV
Procedure: as §1

[3] = target: T3, hY5R (Homo sapiens, UniProt Q15761); assay: Y5R radioligand competition binding, whole HEC-1B-hY5R cells, [3H]propionyl-pNPY; details: [3H]propionyl-pNPY c = 5 nM, read-out: pKi ± SEM hY5R (converted)
T3 construct: expressed in transfected cells; host or cells: HEC-1B (human endometrial cancer)
T3 sequence (Q15761 1-445): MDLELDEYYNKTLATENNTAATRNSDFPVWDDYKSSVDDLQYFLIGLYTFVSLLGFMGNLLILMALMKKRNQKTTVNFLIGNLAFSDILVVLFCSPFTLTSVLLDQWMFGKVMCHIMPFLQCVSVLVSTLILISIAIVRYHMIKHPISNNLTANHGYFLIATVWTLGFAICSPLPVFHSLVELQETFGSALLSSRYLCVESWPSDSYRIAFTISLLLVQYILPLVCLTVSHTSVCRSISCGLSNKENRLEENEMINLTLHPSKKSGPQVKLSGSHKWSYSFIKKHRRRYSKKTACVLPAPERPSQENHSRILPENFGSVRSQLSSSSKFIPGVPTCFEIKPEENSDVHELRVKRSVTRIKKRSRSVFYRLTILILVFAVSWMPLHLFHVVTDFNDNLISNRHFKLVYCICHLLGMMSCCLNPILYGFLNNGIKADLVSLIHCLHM
Procedure: as §1
(§2) (logarithmic form in the case of pKi values).

[4] = target: Y4R (Homo sapiens, UniProt P50391); assay: Y4R miniGsi recruitment assay (HEK293T-NlucN-mGsi/Y4R-NlucC cells); type: cell-based; parameters: expressed in transfected cells; host or cells: HEK293T; details: read-out: miniGsi recruitment Emax ± SEM; note: relative to 1 µM hPP (100%)
Procedure: Furimazine was used as nanoluciferase substrate. The original stock was diluted 1:1000 in L15-HEPES to obtain the feed solution for the assay. Data analysis was performed based on the areas under the curves (time window: 45 min starting with the agonist addition) using GraphPad Prism 5. […] Efficacies Emax correspond to the upper plateaus of the normalized concentration–response curves.

[5] = target: T4, hY4R (Homo sapiens, UniProt P50391); assay: Y4R radioligand competition binding, whole CHO-hY4R-Gqi5-mtAEQ cells, [3H]UR-KK200; parameters: expressed in transfected cells; host or cells: CHO (co-expressing Gqi5 and mitochondrially targeted aequorin); details: [3H]UR-KK200 c = 1 nM, read-out: pKi ± SEM hY4R (converted)
Procedure: as §1, §2

[6] = target: T4, hY4R; assay: Y4R Ca2+ aequorin assay (CHO-hY4R-Gqi5-mtAEQ cells); type: cell-based; parameters: expressed in transfected cells; host or cells: CHO (co-expressing Gqi5 and mitochondrially targeted aequorin)
Procedure: The assay was performed with live CHO-hY4R-Gqi5-mtAEQ cells as previously described (used buffer: buffer III). Measurements were carried out on a Tecan Infinite Lumi plate reader. Data analysis was performed as reported using GraphPad Prism 5 for the calculation of the area under the curve. […] Efficacies Emax correspond to the upper plateaus of the normalized concentration–response curves.

[7] = target: Sulfo-Cy5-[K4]hPP (Homo sapiens) (UniProt P01298); details: cited from earlier work
[8] = target: 5-TAMRA-[K18,Nle17,30]hPP (2) (Homo sapiens) (UniProt P01298); details: cited from earlier work
[9] = target: hY4R-Nluc(intraECL2) (human) (UniProt P50391)
[10] = target: T5, human neuropeptide Y Y4 receptor (wild-type, CHO-hY4R-Gqi5-mtAEQ cells) (human, UniProt P50391 1-375); assay: cell-based or functional assay
[11] = target: human neuropeptide Y Y1 receptor (human) (UniProt P25929); assay: radioligand binding; competition with [^3H]UR-MK299 ([…]) at intact SK-N-MC cells, 23 ± 2 °C, buffer II (150 mM NaCl)
[12] = target: human neuropeptide Y Y5 receptor (human) (UniProt Q15761); assay: radioligand binding; competition with [^3H]propionyl-pNPY (5 nM) at intact HEC-1B-hY5R cells, 23 ± 2 °C, buffer II (150 mM NaCl)
[13] = target: T6, human neuropeptide Y Y2 receptor (human, UniProt P49146 1-381); assay: radioligand binding; competition with [^3H]propionyl-pNPY (0.5 nM) at intact CHO-hY2R cells, 23 ± 2 °C, buffer I (sodium-free); details: one partner purified
T6 construct: also called hY2R; source: CHO-hY2R cells (from PerkinElmer), intact cells
T6 sequence (looked up): T2 sequence (P49146 1-381)

[14] = target: T5, human neuropeptide Y Y4 receptor …; assay: radioligand binding; competition with [^3H]UR-KK200 (1.0 nM) at intact CHO-hY4R-Gqi5-mtAEQ cells, 23 ± 2 °C, buffer I (sodium-free); details: one partner purified

Molecule: Cc1cc(/C=C/C=C/c2ccc(N(C)C)cc2)cc(C)[n+]1CCCn1cc(CCCCNC(=O)N=C(N)NCCC[C@@H]2NC(=O)CCC(=O)NCCCCNC(=O)N=C(N)NCCC[C@@H](C(=O)N[C@@H](CC(C)C)C(=O)N[C@@H](CCCNC(=N)N)C(=O)N[C@@H](Cc3ccc(O)cc3)C(N)=O)NC(=O)[C@H](Cc3ccc(O)cc3)NC2=O)nn1 [Compound 19]
- Ki [1]: > 1000 nM
- Ki [2]: > 1000 nM
- Ki [3]: > 1000 nM
- Emax [4]: 43 ± 1%
- Ki [5]: 0.603 nM
- EC50 ([6]; CHO-hY4R-Gqi5-mtAEQ cells, agonist mode, read-out: Ca2+-aequorin pEC50 ± SEM (converted)): 56.2 nM
- Emax ([6]; read-out: Ca2+-aequorin Emax ± SEM): 64 ± 2%

Molecule: Y4 receptor (from UniProt P50391)
- Kd [7]: 5.6 nM
- Kd [8]: 26 nM

Molecule: human pancreatic polypeptide (from UniProt P01298 30-65)
- pKi [9]: 7.7

B1: cyclic peptide 11 (alkyne-functionalized precursor peptide) (peptide)
peptide: RYRLRY
modifications: N^α-succinyl; N^ω-[hex-5-ynylaminocarbonyl]-Arg at position 1; N^ω-[(aminobutyl)aminocarbonyl]-Arg at position 3; cyclized via the succinyl carboxylic group and the primary amino group of the carbamoylated arginine in position 3; C-terminal amide
notes: printed in three-letter code for the linear precursor 10: N^α-succinyl-N^ω[hex-5-ynylaminocarbonyl]-Arg-Tyr-N^ω-[(aminobutyl)aminocarbonyl]Arg-Leu-Arg-Tyr-amide; 11 is its cyclized form; source: synthetic peptide (SPPS of linear peptide 10, cyclization in solution, preparative HPLC)
- EC50, miniGsi recruitment assay (HEK293T-NlucN-mGsi/Y4R-NlucC cells) [10]: 73 nM
- pKi [11]: < 5
- pKi [12]: < 5.5
- pKi [13]: < 5
- Ki [14]: 0.42 nM
